Experimental data reported in paper doi:10.1101/2025.01.06.631460 (bioRxiv, 2025).

Molecular target: the molecule itself
Experiment: single molecule photobleaching

B1: CNGC14-GFP (natural protein, Arabidopsis thaliana, UniProt Q9SJA4 1-726, looked up)
chain: MEFKRDNTVRFYGDEKQTIEVGEKRVPLFKSTTAPFMKQEVLPKKSKTRLKIPRFGRFKVFPENFEIERDKILDPGGDAVLQWNRVFLFWCLVALYVDPLFFFLSSVKRIGRSSCMTTDLKLGIVITFFRTLADLFYVLHIVIKFRTAYVSRTSRVFGRGELVKDPKLIARRYLRSDFIVDLIACLPLPQIVSWFILPSIRSSHSDHTTNALVLIVLVQYIPRLYLIFPLSAEIIKATGVVTTTAWAGAAYNLLQYMLASHILGSAWYLLSIERQATCWKAECHKESVPLQCVTDFFDCGTLHRDDRNNWQNTTVVFSNCDPSNNIQFTFGIFADALTKNVVSSPFLEKYLYCLWFGLQNLSSYGQNLSTSTSVLETMFAILVAIFGLVLFALLIGNMQTYLQSITVRLEEWRLKRRDTEEWMGHRLLPQNLRERVRRFVQYKWLATRGVDEETILHSLPADLRRDIQRHLCLDLVRRVPLFAQMDDQLLDAICERLASSLSTQGNYIVREGDPVTEMLFIIRGKLESSTTNGGRTGFFNSITLRPGDFCGEELLAWALLPKSTVNLPSSTRTVRALEEVEAFALQAGDLKFVANQFRRLHSKKLQHTFRYYSHQWRTWAACFVQVAWRRYKRKKLAKSLSLAESFSSYDEEEAVAVAATEEMSHEGEAQSGAKARHHTSNVKPHFAATILASRFAKNTRRTAHKLKDVEIPMLPKPDEPDFSVDD
stoichiometry N: 4
